Molecular target: Cynomolgus/Rhesus CTLA-4 (cynomolgus/rhesus)
Experiment: ELISA, antibody coated, Cynomolgus/Rhesus CTLA-4 titrated

## Ipilimumab (antibody)
  EC50 (read off the curve): 0.2 nM

Reference: patent US20170226211A1
